Assay results: US20210292392A1 (TSB THERAPEUTICS BEIJING, published 2021)
Residue numbers refer to the chain shown, from its start. In names and notes the source's numbering stands. Read-outs that look alike come from different tables or passages of the source.

How the values were obtained:
[1] = target: receptor-binding domain (RBD) of the spike protein of SARS-CoV-2 (SARS-CoV-2, UniProt P0DTC2 319-541)
[2] = target: T1, full length spike (S) protein of SARS-CoV-2 (SARS-CoV-2, UniProt P0DTC2 14-1273); test: cell-based or functional assay
[3] = target: T1, full length spike (S) protein of …; test: cell-based or functional assay; remark: listed apart in the source
[4] = target: full length spike (S) protein of SARS-CoV-2 on pseudovirus (SARS-CoV-2, UniProt P0DTC2 14-1273); test: cell-based or functional assay

B1: P5A-3C8 (antibody, human IgG1, kappa, V domains shown)
VH: EVQLVESGGGLIQPGGSLRLSCAASGFTVSSNYMSWVRQAPGKGLEWVSFIYSGGSTYYADSVKGRFTISRDNSKNTLYLQMNSLRAEDTAVYYCARDLQEHGMDVWGQGTTVTVSS
VL: DIQLTQSPSSLSASVGDRVTITCRASQGISSYLAWYQQKPGKAPKLLIYAASTLQSGVPSRFSGSGSGTDFTLTISSLQPEDFATYYCQHLNSYPPGYTFGQGTKLEIKR
[1]
  Kd: 1.3 nM

B2: P22A-1D1 (antibody, human IgG1, kappa, V domains shown)
VH: B1 VH with F50V, L99R, Q100D, E101Y, H102Y
VL: DIQLTQSPSFLSASVGDRVTITCRASQGISSYLAWYQQKPGKAPKLLIYAASTLQSGVPSRFSGSGSGTEFTLTISSLQPEDFATYYCLHLNSYRTFGLGTKVEIKR
[1]
  Kd: 5.79 nM

B3: P5A-1B8 (antibody, human IgG1, kappa, V domains shown)
VH: EVQLVESGGGLIQPGGSLRLSCAASGFTVSSNYMSWVRQAPGKGLEWVSVIYPGGSTFYADSVKGRFTISRDNSKNTLYLQMNSLRAEDTAVYYCARETLAFDYWGQGTLVTVSS
VL: DIQLTQSPSFLSASVGDRVTITCRASQGISSYLAWYQQKPGKAPKLLIYAASTLQSGVPSRFSGSGSGTEFTLTISSLQPEDFATYYCQQLNSYPPAFGGGTKVEIKR
[1]
  Kd: 4.28 nM

B4: P2B-1E4 (antibody, human IgG1, lambda, V domains shown)
VH: QITLKESGPTLVKPTQTLTLTCTFSGFSLSTSGVGVGWIRQPPGKALEWLALIYWDDDKRYSPSLKSRLTITKDTSKNQVVLTMTNMDPVDTATYYCAHQIVATIIDYWGQGTLVTVSS
VL: QSALTQPASVSGSPGQSITISCTGTSSDVGGYNYVSWYQQHPGKAPKLMIYDVSKRPSGVSNRFSGSKSGNTASLTISGLQAEDEADYYCSSYTSSSVVFGGGTKLTVLG
[2]
  IC50, pseudovirus neutralization: 5.96 µg/mL

B5: P2A-1B3 (antibody, V domains shown)
VH: EVQLVESGGGLVQPGGSLRLSCVASGFSFNRYSMNWLRQTPRKGLEWLSYISASGNTIYYADSVRGRFTTSRDNAKNTLYLQMNSLRDDDTAVYFCARPAMVREGTYNWFDPWGQGTLVTVSS
VL: EIVLTQSPGTLSLSPGERATLSCRASQSVSNDYLAWYQQKPGQAPRLLIYYASSRATGIPDRFSGSGSGTDFTLTISRLEPGDSAVYYCQQYGDSPPITFGQGTRLEIKR
[3]
  IC50, pseudovirus neutralization: 16.8 µg/mL
  Neutralizing activity (%) Mean at 0.0228624 µg/ml: 11.5%
  Neutralizing activity (%) Mean at 0.0685871 µg/ml: -0.545%
  Neutralizing activity (%) Mean at 0.2057613 µg/ml: 10.2%
  Neutralizing activity (%) Mean at 0.6172839 µg/ml: 23.3%
  Neutralizing activity (%) Mean at 1.851852 µg/ml: 22.1%
  Neutralizing activity (%) Mean at 5.555555 µg/ml: 37.2%
  Neutralizing activity (%) Mean at 16.66667 µg/ml: 43.6%
  Neutralizing activity (%) Mean at 50 µg/ml: 74.9%

B6: P2A-1B3 (antibody, V domains shown)
VH: B5 VH
VL: B5 VL
[4]
  Pseudovirus IC50: 16.8 µg/mL
  Pseudovirus IC80: > 50 µg/mL

B7: P5A-3C12 (antibody, human IgG1, kappa, V domains shown)
VH: QITLKESGPTLVKPTQTLTLTCTFSGFSLSTSGVGVGWIRQPPGKALEWLALIYWDDDKRYSPSLKSRLTITKDTSKNQVVLTMTNMDPVDTATYYCAHSLFLTVGYSSSWSPFDYWGQGTLVTVSS
VL: not shown
[1]
  Kd: 8.47 nM

B8: P2B-1D9 (antibody, human IgG1, lambda, V domains shown)
VH: QITLKESGPTLVKPTQTLTLTCTFSGFSLSTSGVGVGWIRQPPGKALEWLALIYWDDDKYYSPSLKSRLTITKDTSKNQVVLTMTNMDPVDTATYYCAHTRILYYGSGSYYDYWGQGTLVTVSS
VL: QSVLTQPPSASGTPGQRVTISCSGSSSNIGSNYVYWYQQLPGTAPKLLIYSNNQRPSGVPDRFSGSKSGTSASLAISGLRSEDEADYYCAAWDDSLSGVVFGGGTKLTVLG
[2]
  IC50, pseudovirus neutralization: 3.12 µg/mL

B9: P2B-1A10 (antibody, human IgG1, kappa, V domains shown)
VH: EVQLVESGGGLIQPGGSLRLSCAASGFTVSSNYMSWVRQAPGKGLEWVSVIYSGGSTYYADSVKGRFTISRDNSKNTLYLQMNSLRAEDTAVYYCAREGPKSITGTAFDIWGQGTIVTVSS
VL: DIQMTQSPSSLSASVGDRVTITCQASQDISNYFNWYQQKPGKAPKLLIYDASNLETGVPSRFSGSGSGTDFTFTISSLQPEDIATYYCQQYDNLPMYTFGQGTKLEIKR
[2]
  IC50, pseudovirus neutralization: 0.349 µg/mL

B10: P2B-1A10 (antibody, human IgG1, kappa, V domains shown)
VH: B9 VH
VL: B9 VL
[1]
  Kd: 38.4 nM

B11: P2B-1A1 (antibody, human IgG1, lambda, V domains shown)
VH: QVQLQESGPGLVKPSETLSLTCTVSGGSISSYYWSWIRQPPGKGLEWIGYIYYSGSTNYNPSLKSRVTISVDTSKKQFSLKLSSVTAADTAVYYCARLERDWPLDAFDIWGQGTMVTVSS
VL: QSALTQPASVSGSPGQSITISCTGTSSDVGGYNYVSWYQQHPGKAPKFMIYDVSKRPSGVSNRFSGSKSGNTASLTISGLQAEDEADYYCSSYTSNNTFAFGGGTKLTVLG
[2]
  IC50, pseudovirus neutralization: 0.687 µg/mL

B12: P5A-2G9 (antibody, human IgG1, lambda, V domains shown)
VH: QVQLVESGGGVVQPGRSLRLSCAASGFTFSSYGMHWVRQAPGKGLEWVAVIWYDGSNKYYADSVKGRFTISRDNSKNTLYLQMNSLRAEDTAVYYCARWFHTGGYFDYWGQGTLVTVSS
VL: QPVLTQPPSSSASPGESARLTCTLPSDINVSSYNIYWYQQKPGSPPRYLLYYYSDSDKGQGSGVPSRFSGSKDASANTGILLISGLQSEDEADYYCMIWPSNALYVFGTGTKVTVLG
[1]
  Kd: 15.9 nM

B13: P2A-1A9 (antibody, V domains shown)
VH: EVQLVESGGGLVQPGRSLRLSCAASGFTFDDYAMHWVRQVPGKGLEWVSGISWNGGIIGYADSVKGRFTISRDNAKTSLYLQMNSLRAEDTALYYCAKVAGRGDYDYYYGMDVWGQGTTVTVSS
VL: QSVLTQPPSVSGAPGQRVTISCTGSSSNIGAGYDVHWYQQLPGTAPKLLIYGNNNRPSGVPDRFSGSKSGTSASLAITGLQAEDEADYYCQSYDSSLSGSVFGGGTKLTVLG
[3]
  IC50, pseudovirus neutralization: 26.3 µg/mL
  Neutralizing activity (%) Mean at 0.0228624 µg/ml: 12.5%
  Neutralizing activity (%) Mean at 0.0685871 µg/ml: 15.9%
  Neutralizing activity (%) Mean at 0.2057613 µg/ml: 15.1%
  Neutralizing activity (%) Mean at 0.6172839 µg/ml: 14.3%
  Neutralizing activity (%) Mean at 1.851852 µg/ml: 15.9%
  Neutralizing activity (%) Mean at 5.555555 µg/ml: 34.8%
  Neutralizing activity (%) Mean at 16.66667 µg/ml: 41.2%
  Neutralizing activity (%) Mean at 50 µg/ml: 62.6%

B14: P5A-1D2 (antibody, human IgG1, lambda, V domains shown)
VH: EVQLVESGGGLIQPGGSLRLSCAASGFIVSSNYMSWVRQAPGKGLEWVSIIYSGGSTYYADSVKGRFTISRDNSNNTLYLQMNSLRAEDTAVYYCARALQVGATSDYFDYWGQGTLVTVSS
VL: B13 VL with N54S, A86T, Y93C, G99V, S100V
[1]
  Kd: 14 nM

B15: P2B-2G11 (antibody, V domains shown)
VH: B13 VH with V40A, R87K, A88P
VL: B13 VL
[3]
  IC50, pseudovirus neutralization: 34.8 µg/mL
  Neutralizing activity (%) Mean at 0.0228624 µg/ml: 3.81%
  Neutralizing activity (%) Mean at 0.0685871 µg/ml: 13.9%
  Neutralizing activity (%) Mean at 0.2057613 µg/ml: 12.8%
  Neutralizing activity (%) Mean at 1.851852 µg/ml: 16%
  Neutralizing activity (%) Mean at 5.555555 µg/ml: 19%
  Neutralizing activity (%) Mean at 16.66667 µg/ml: 25.9%
  Neutralizing activity (%) Mean at 50 µg/ml: 64.4%

B16: P2B-2G4 (antibody, V domains shown)
VH: QVQLVESGGGVVQPGRSLRLSCAASGFTFSSYGMHWVRQAPGKGLEWVAVIWYDGSNKYYADSVKGRFTISRDNSKNTLYLQMNSLRAEDTAVYYCARGAAMVWLDYWGQGTLVTVSS
VL: QSALTQPRSVSGSPGQSVTISCTGTSSDVGGYNYVSWYQQHPGKAPKLMIYDVSKRPSGVPDRFSGSKSGNTASLTISGLQAEDEADYYCCSYAGSYTFVVFGGGTKLTVLG
[3]
  IC50, pseudovirus neutralization: 5.11 µg/mL
  Neutralizing activity (%) Mean at 0.0228624 µg/ml: -3.33%
  Neutralizing activity (%) Mean at 0.0685871 µg/ml: -8.88%
  Neutralizing activity (%) Mean at 0.2057613 µg/ml: 10.4%
  Neutralizing activity (%) Mean at 0.6172839 µg/ml: 20.2%
  Neutralizing activity (%) Mean at 1.851852 µg/ml: 35.4%
  Neutralizing activity (%) Mean at 5.555555 µg/ml: 46.4%
  Neutralizing activity (%) Mean at 16.66667 µg/ml: 65.2%
  Neutralizing activity (%) Mean at 50 µg/ml: 74.8%

B17: P5A-2G7 (antibody, human IgG1, lambda, V domains shown)
VH: QVQLQESGPGLVKPSETLSLTCTVSGDSVSSGSYYWSWIRQPPGKGLEWIGYIYYSGSTNYNPSLKSRVTISVDTSKNQFSLKLSSVTAADTAVYYCARERCYYGSGRAPRCVWFDPWGQGTLVTVSS
VL: B16 VL with R8A, V18I, K55N, P61S, D62N, C91S, A94T, G95S, Y97S, F99L
[1]
  Kd: 3.95 nM
